Key:
[1] = target: mCherry-Nup153-IDR-NLS-LacI; test: LacO array recruitment
[2] = target: mCherry-Med1-IDR-NLS-LacI; test: LacO array recruitment
mCherry-Med1-IDR-NLS-LacI, sequence (Q15648 whole entry): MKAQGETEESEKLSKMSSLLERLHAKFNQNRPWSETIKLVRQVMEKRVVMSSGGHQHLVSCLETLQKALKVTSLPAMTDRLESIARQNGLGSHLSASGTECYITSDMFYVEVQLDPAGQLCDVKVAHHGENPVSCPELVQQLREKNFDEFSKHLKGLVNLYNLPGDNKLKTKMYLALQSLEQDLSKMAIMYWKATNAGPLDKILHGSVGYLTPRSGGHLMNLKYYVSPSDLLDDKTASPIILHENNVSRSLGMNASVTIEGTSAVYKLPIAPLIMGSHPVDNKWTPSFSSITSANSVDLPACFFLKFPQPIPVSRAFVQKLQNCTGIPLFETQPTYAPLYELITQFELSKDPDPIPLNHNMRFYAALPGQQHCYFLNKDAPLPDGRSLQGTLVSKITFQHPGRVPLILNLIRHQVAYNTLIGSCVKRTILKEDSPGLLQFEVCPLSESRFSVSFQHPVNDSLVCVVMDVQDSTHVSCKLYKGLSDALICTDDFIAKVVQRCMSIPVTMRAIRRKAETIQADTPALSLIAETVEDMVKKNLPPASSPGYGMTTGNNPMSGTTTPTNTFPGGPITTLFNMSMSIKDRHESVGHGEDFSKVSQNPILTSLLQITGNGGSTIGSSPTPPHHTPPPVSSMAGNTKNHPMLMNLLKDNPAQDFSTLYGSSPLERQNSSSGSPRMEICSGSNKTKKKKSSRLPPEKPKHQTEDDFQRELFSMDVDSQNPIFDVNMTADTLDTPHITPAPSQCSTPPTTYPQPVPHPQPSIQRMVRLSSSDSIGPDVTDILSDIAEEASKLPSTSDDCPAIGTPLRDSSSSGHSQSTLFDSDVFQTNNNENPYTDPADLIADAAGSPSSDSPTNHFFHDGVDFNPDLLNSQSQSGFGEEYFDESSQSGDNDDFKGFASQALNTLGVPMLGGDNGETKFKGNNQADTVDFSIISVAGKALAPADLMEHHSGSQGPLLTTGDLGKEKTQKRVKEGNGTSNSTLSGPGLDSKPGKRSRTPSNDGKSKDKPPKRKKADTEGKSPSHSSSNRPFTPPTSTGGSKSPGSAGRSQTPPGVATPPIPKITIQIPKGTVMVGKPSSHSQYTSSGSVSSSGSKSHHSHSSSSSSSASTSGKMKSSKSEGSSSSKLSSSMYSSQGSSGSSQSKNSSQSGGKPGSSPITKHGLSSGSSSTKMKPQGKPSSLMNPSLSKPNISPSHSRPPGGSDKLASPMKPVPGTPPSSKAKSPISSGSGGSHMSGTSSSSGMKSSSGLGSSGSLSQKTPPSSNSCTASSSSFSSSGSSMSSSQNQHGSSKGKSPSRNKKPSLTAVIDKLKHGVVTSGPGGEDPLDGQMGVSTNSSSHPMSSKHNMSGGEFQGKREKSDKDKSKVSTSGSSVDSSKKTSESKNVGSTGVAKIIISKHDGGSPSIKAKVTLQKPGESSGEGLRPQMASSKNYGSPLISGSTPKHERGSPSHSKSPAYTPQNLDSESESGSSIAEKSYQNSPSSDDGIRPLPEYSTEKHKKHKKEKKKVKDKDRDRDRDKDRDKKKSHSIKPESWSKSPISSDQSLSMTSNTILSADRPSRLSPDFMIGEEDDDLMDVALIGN

mCherry-Nup153-IDR-NLS-LacI, sequence (P49790 2-1475): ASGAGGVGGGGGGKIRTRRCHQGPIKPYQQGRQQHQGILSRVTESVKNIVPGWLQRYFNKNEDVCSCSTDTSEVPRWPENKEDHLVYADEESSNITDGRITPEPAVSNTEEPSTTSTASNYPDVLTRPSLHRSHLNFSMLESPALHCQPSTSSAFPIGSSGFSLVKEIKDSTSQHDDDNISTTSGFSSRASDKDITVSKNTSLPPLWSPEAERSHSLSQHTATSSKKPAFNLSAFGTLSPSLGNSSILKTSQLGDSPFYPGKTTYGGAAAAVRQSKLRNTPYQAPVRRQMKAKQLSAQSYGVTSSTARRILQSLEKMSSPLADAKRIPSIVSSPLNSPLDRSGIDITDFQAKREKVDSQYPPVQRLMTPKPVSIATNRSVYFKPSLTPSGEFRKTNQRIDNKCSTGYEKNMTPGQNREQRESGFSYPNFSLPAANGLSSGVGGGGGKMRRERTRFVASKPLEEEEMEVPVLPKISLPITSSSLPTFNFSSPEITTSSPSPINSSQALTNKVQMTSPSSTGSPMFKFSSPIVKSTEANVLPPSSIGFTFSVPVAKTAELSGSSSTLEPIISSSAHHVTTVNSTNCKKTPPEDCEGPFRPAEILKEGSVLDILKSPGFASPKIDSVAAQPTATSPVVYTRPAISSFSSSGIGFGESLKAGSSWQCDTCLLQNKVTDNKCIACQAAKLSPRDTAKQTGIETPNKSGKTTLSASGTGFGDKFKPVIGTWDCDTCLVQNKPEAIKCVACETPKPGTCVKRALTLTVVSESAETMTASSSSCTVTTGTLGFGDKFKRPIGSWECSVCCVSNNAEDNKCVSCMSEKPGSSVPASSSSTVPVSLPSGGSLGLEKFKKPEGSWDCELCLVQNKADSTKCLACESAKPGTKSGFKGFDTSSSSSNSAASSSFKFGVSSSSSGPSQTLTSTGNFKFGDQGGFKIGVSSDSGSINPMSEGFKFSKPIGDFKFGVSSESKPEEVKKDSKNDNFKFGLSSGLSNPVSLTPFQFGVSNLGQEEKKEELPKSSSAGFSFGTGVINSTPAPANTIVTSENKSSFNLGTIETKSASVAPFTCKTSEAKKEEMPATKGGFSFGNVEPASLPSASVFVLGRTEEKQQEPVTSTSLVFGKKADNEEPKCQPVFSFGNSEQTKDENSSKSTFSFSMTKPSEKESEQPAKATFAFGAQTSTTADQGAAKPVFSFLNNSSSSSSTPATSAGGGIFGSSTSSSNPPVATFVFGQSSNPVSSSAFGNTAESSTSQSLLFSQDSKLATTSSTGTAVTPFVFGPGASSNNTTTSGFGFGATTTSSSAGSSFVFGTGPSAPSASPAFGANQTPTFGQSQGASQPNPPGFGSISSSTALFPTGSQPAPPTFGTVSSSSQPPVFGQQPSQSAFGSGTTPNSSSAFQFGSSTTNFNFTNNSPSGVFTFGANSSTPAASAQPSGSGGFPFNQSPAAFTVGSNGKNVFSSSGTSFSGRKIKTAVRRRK
EGFP-Med1-NLS (Med1 IDR fused to GFP) (domain or fragment), sequence (Q15648 whole entry, the tested form may be a part): as the sequence (Q15648 whole entry) above

For “EGFP-Med1-NLS (Med1 IDR fused to GFP) (domain or fragment)”, which percent of cells with colocalized GFP and mCherry signal [1] is on record?
Its percent of cells with colocalized GFP and mCherry signal is 13 % of cells.

With “EGFP-PolII CTD52-NLS (domain or fragment)” as the substance, how does the percent of cells with colocalized GFP and mCherry signal [2] read?
The percent of cells with colocalized GFP and mCherry signal was 53 % of cells.

And the percent of cells with colocalized GFP and mCherry signal [1]?
The percent of cells with colocalized GFP and mCherry signal was 67 % of cells.

Source: publication doi:10.1101/2021.05.10.443506
